Here are results for 19 sequences from the DeepSol protein solubility set.

The data set is described as follows: soluble on expression in E. coli; label from the status in PepcDB or PDB records.
For the sequence “MNWYELYWQRITPLHLFLWPVSQLLILFQSVRRFLYRRAILTSIHLPVPIIIIDSITTDSPVKTSLIIQIANILKAAGLRPGIISRGYPDNHRPPTRVTISSHPHLTGEKSLLLTYHLRETCPVWIGYDRIETAKALLNAHKECNVLICDDGLQDLRLQRDFEAVIVDTSVINSGNGLIMPAGPLRDSFARLKHTDAVILAGHQRRIPDITDEIRTIHTRPQKEHFFNLSWPELTADAAGLAGKRIHAIVCDPDTQNFLDNLEFLKLTVTPRVFPENHHFIATDFQSDEAEIILIPEEDAVKCLSLHDDRIWVLQQEYRVDPGLREIILKKLREKFMDPKLLDILVCPLCKGSLIYKKDRLELICKADRLAYPIRDGIPVMLEDEARKLPDEEEIKLEHHHHHH”, the “soluble on expression in E. coli” value is “not soluble”. Turning to “MNYAGSEKRVAIEEKKKIVEFLWKRNEEQEIVGHIYIGRIVRTIAGMNAAFVNIGLEKHAYLSYDDVPSAYRIHEGQAVLVQVVKEAIDTKGPKLTANIEFTGKYVVYMPYDEMRAVSRKIKNNKRRQQLLQIEVEGTGGYIFRSASEKGEIEEIQAEMQRLQQLYEELKRKEEQGKAPLLLHRPATFLDRVFQENPIETIEKVVVDTRSIVKELEEKVGKEKVSFYNEKSSMFNHFGIEREIEKALQKIVWLPNGAYLIVEQMETMTVIDVNTGKFTGKQNLQDTVLRTNELAAEEIARQLRLRDIGGMILIDFINMKRREDKEKVRECLVAAMQNDRTYTRVLGFTELGILEMTRKRKKHSLRDVLLEECAPCKATGYVMSYETIAYELERELLTYGNIEDEAVLISAPKELQKQFLQKELQKNIPFEIYFKDDMIEKYAIIRFGSKKEIVERKNS”, the “soluble on expression in E. coli” value is given as “not soluble”.

On to “MNYELIVVGGGPAGLAAAYEAYNNGIKNILILERDKELGGILNQCIHNGFGLHTFKEELTGPEYADRFIEMVKDTNVEVKLNTMVLEITKDKKVYAINSKEGYMELEAKAIILSMGCRERTRGAINIPGDRPAGVFTAGAAQRYINVEGYMPGKEVVILGSGDIGLIMARRMTLEGAKVKAVVELCPYSNGLNRNIVQCLNDYNIPLYLSHTVTDIIGKERLEKVIIAKVDENRRPIKGTEIEFDADTLLLSVGLIPENELSSNAGIELDRRTNGLRVTESMETSIDGIFACGNVVHVHDLVDFVTEESKRTGASAAKYIKGELKKDKYVNIVNGTNVNYTVPQKLNVDDVEDRLTIFMRVNNIYHNKVLVVRSKEEVIAKFKRAHLAPSEMEKVVLGKAFLDKIKSDITISLEDGE”, for which the “soluble on expression in E. coli” value was “not soluble”.

In the case of “MNYSLEDLPNSGKNPRVYMDIVLNNEIIGRLQIKLFRDAFPAGVENFVQLTNGKTYRVNSNGTGKYKYNRHINRTYEGCKFHNVLHNNYIVSGDIYNSNGSSAGTVYCDEPIPPVFGDYFYPHESKGLLSLVPYTDESGNRYYDSTFMITLDDIRPSNVLDELDRDQVVIGQVYGGLDVLDKINSMIKPYAGRKYPTFSIGKCGAYLDSSQAQRKRPVNVNGTKRFLNKPTRVN”, the “soluble on expression in E. coli” value is listed as “soluble”.

As for “MNYVERYIEQFLRATVRNNIKHYLLMLDEKMKNLDDYMRYLITKKEQLSKLIDSLMLTLENKYIDIAEAFQIQCAREINNQEIENIKSELNKVEAYYAQIETQIQQTSTEKIATEKTSYLINYMNAVALEHHHHHH”, the “soluble on expression in E. coli” value was “soluble”. For “MPADDLQQALNNSQNGDVITLGPGSYFGNFIISNQVTLRSNNKGEAIIDSQGKGHGLWLKNSQITIENLTITNWGHDLTDQNSGIYSHGKIDNNKVPSLTIRNNILIGDGFGIWLNQADKAIISHNRVKGNLTLRSADRGNGIQVANVTNSHVFLNEVSETRDGVYVISSQNNIIEQNTMHHLRYGIHYMYSYDNTVKNNTAYDTRAGYALMSSRRLTITGNKTTNSEDYGFLLNFITQSTFSHNYVKNVWTKPENKVLGRDGKGLFVYNSGYNTVKHNIIDTAEIGIHLTAGSENIKIFGNSFINNPTQVKYVSNKKQEWSKDGRGNYWSNYLGWDMGNDGIGDTIFEPNDGIDKLVWQYPEMKMIMDSPAILILRWVQRQFPVLKPPGVKDSFPLMSAPSLTKNEQAATPLAVTTSTFTKSNSAQSANTTSASLKELEHHHHHH”, the “soluble on expression in E. coli” value is “soluble”. With “MPAENIVEVHHLKKSVGQGEHELSILTGVELVVKRGETIALVGESGSGKSTLLAILAGLDDGSSGEVSLVGQPLHNMDEEARAKLRAKHVGFVFQSFMLIPTLNALENVELPALLRGESSAESRNGAKALLEQLGLGKRLDHLPAQLSGGEQQRVALARAFNGRPDVLFADEPTGNLDRQTGDKIADLLFSLNREHGTTLIMVTHDLQLAARCDRCLRLVNGQLQEEA”, the “soluble on expression in E. coli” value is reported as “soluble”. As for “MPAENSVEVHRLRKSVGQGEHELSILTGVELVVKRGETIALIGESGSGKSTLLAILAGLDDGSSGEVSLVGKPLHQMDEEARAQLRAQHVGFVFQSFMLIPTLNALENVELPALLRGENSGQSKAGAKALLEQLGLGKRLDHLPAQLSGGEQQRVALARAFNGRPDVLFADEPTGNLDRQTGDKIADLLFSLNREHGTTLILVTHDPALAARCDRRLRLVNGQLQEEA”, the entry is “not soluble”. For “MPAVSKGDGMRGLAVFISDIRNCKSKEAEIKRINKELANIRSKFKGDKALDGYSKKKYVCKLLFIFLLGHDIDFGHMEAVNLLSSNRYTEKQIGYLFISVLVNSNSELIRLINNAIKNDLASRNPTFMGLALHCIANVGSREMAEAFAGEIPKILVAGDTMDSVKQSAALCLLRLYRTSPDLVPMGDWTSRVVHLLNDQHLGVVTAATSLITTLAQKNPEEFKTSVSLAVSRLSRIVTSASTDLQDYTYYFVPAPWLSVKLLRLLQCYPPPEDPAVRGRLTECLETILNKAQEPPKSKKVQHSNAKNAVLFEAISLIIHHDSEPNLLVRACNQLGQFLQHRETNLRYLALESMCTLASSEFSHEAVKTHIETVINALKTERDVSVRQRAVDLLYAMCDRSNAQQIVAEMLSYLETADYSIREEIVLKVAILAEKYAVDYTWYVDTILNLIRIAGDYVSEEVWYRVIQIVINRDDVQGYAAKTVFEALQAPACHENLVKVGGYILGEFGNLIAGDPRSSPLIQFNLLHSKFHLCSVPTRALLLSTYIKFVNLFPEVKATIQDVLRSDSQLKNADVELQQRAVEYLRLSTVASTDILATVLEEMPPFPERESSILAKLKKKKGGS”, the “soluble on expression in E. coli” value is “soluble”. Then “MPDGGFKVEVEALRRYRDTLEDFKSQADTFSDLVDRADVGDESWGLVGLATKSSYTEALGQLRDLLDRMKQGLTNTGEKFTKAAELYASNDDQGAIQLGNYEIEVDKVDEVRPAGA”, with “not soluble”; and “MPDGGLAAPDRAVLPRAMTPPPSTSRTYDAVIVGGGHNGLVAAAYLARAGRSVLVLERLDHTGGAAVSTKPFAGVDARLSRYSYLVSLLPKKIVRDLGLDFRVRARTVSSYTPVERAGRPTGLLVGGGERRTRESFARLTGSQREYDAWQRFYAMTGHVAQRVFPTLTEPLPTRDELRRRVDDETAWRALFEEPVGVAIEEHFDDDLVRGVALTDALIGTFADAHDPSLAQNRCFLYHVIGGGTGAWDVPVGGMGALTDALAGAARAAGAVLATGHEAVRIEADGHGAEVTFRSADGEGVAAARHVLVNASPRELAALTGDAPPAPAEGAQLKVNMLLTRLPRLRDPDADPREAFAGTFHIAEGYEQLAAAHARAAAGELPAAPPSEIYCHSLTDPTILGPGPAAKGMHTLTLFGLHTPARLFARDNDAVRAELLKSTLAQLDAHLAEPLADCLATDADGRPCIEARSPLDLERDLGLPGGNIFHRELSWPHAQEGTGHWGVETGRARVLLCGAGAVRGGGVSGVPGHNAAMAVLDGTTGLEHHHHHH”, with “not soluble”. For the sequence “MPEKKPVTAENSVGIDLGIEKFAILSDGIAVENPRFIKRVEKRIKKLQKQISRKKKGSKNYEKQKIRIQKKYRKLRNLRDDFHDKVSTAIAKRYDTIFIEDLNVRGMQRNHHLARSITDVSFYSFKEKLKWKADRYGKNLIEIGRFDPSSKLCSRCGNIKKDLKLSDRVYSCDACGLTIDRDYNASLDIRKIGLVKVGLVPPEFTPVEIATSGLDGIYPYRQMSVGESGRSEASAEELEHHHHHH”, the “soluble on expression in E. coli” value is listed as “not soluble”. As for “MPGVTVKEIDQHVLTKNMAAFLKKSGKIFVPEQAVYMKTGKFKETAPTDDDWFYTRCASIMRHLYLRSPAGVGAFTKVYSGRKRNGVRPSKHCRSSDGCIRKALQALEAANMVERHPDGGRKLTPQGQRNLDRIANKIVAKQRERSAPVSMIITTLEHHHHHH”, the entry is “soluble”. For “MPHPKLTPKCEAPPEKRLAHLEIRFKDRRHIIPPLFHNGWVGRNEDRTLLNDTIIEFYMCDWMRLEVFDEATRASSHVFHSFFLPKIKTCFKDFKENPPRRSELANHYNRFFRSKNDAETFLKKDILLIPVHLDKPKHWFLVIVHNPSGAVRRISDVNILDATNKVKSRRLSRRITGHVNCDENAGECRIIIMDSLVHSKKYREVIDKTHDSTFDHIRLWLLMSAAATDVDMFCTRFRKVVCQKLPQQKNSVDCGIFMMAFAEYFTKYNTAWQSLPTDALADLKMDDDIKSLLNSETPRQRLDELFQSLKA”, the “soluble on expression in E. coli” value is “not soluble”. Turning to “MPHSCSGNYNSCAYIYGVHICKVLLILRAQNVYRNGGFMGEQLIISISREYGSGGHEIARKLADRLELAFYDRCMLDEIAEQMNADVSDFHKYDEKPGNRLLSRRVGNHTNSYEEIIAQFQFDYIRKKAESGESFVVVGRCSENVLKDYDCLISVFVTGDKEHKIQRVMEHFDLSESEAYTKMRRHDRTRKQYHNRYSEGKWGDATYYDMCINSSPLGIEKTVNVLENYVKERTGNQEL”, the “soluble on expression in E. coli” value was “not soluble”. As for “MPIHVDKPDTMQNELIDIVADGLRSNQIYTFRMILKHDYGTHKSEATFQADPAGRIDLKYAKPLRGSYYDADPMGLFLGMKPCEDFAYGGYLRCTPPVPFYYLLELFDSSGTLIDSTYIKKHWMHPKLIRTELEEDFCATLFKPPGDGPFPVVLDISGTGGGIHEHKGAMLASEGFVVLCLAFFQFKYLPQKMEDVDMEYFAKAINYLIDLPFTKNVIGIQGVSFGATIVDLLTTRHGDKIKALVSINGPQVVSDYLFMQENGAPIPHLSHGQVTLEHCQFINGVMCSHRNFQIMTEKLTPETEIPWERIPSDVKIRVIGSVDDLCQPSVHATYYRQRRLKETGHDVEVELVNGGHIMEPPYFPHHELVYAKYQGFYCGYGGEVVLHAKSQEKTWSNTIKFFQKALGNTKKIQDWDRLTVVVPPRKKSKL”, the entry is “not soluble”; as for “MPIITKNTDTTCQTPPLLSIICPAYNQEAFVAQALDGFLSQQTRFNYEILINDDASTDGTARIIAQYAERHPTIIRAFYQQVNQYSQGLPCVPDLFAEARGRYIAYCEADDYWTDPRKLQLQVDFLESHPDYVITYHDAVAFDENGEYGVQLQGHLRADATALELQQARRLSTLTTCFRNVFSTMPPELNIRVAPLNDMCWWSLLGAHGKGKFMADIKPAAYRLHAGGVFSMRSDKRKLHMNLQTCSSLANYYNLQGNQALYEYFLMQTVCLSLAALTPSHKLQTLWQVASNVVVNLGRRLLPTTGKAHVQ”, “not soluble”; as for “MPIRDDISWPPSAVCSVSLILHLPGRFGHVSVAHLLLDHGADVNAQNRLGASVLTVASRGGHLGVVKLLLEAGAFVDHHHPSGEQLGLGGSRDEPLDITALMAAIQHGHEAVVRLLMEWGADPNHAARTVGWSPLMLAALTGRLGVAQQLVEKGANPDHLSVLEKTAFEVALDCKHRDLVDYLDPLTTVRPKTGQAACPPWLHRGPQIVFMWLKLRIALLEGHAELRVQPCRPLRLRKWCA”, “soluble”. Consider “MPITSTTPEPGIVAVTVDYPPVNAIPSKAWFDLADAVTAAGANSDTRAVILRAEGRGFNAGVDIKEMQRTEGFTALIDANRGCFAAFRAVYECAVPVIAAVNGFCVGGGIGLVGNSDVIVASEDATFGLPEVERGALGAATHLSRLVPQHLMRRLFFTAATVDAATLQHFGSVHEVVSRDQLDEAALRVARDIAAKDTRVIRAAKEALNFIDVQRVNASYRMEQGFTFELNLAGVADEHRDAFVKKS”, for which the “soluble on expression in E. coli” value is “not soluble”.
